For data set [1], the target named is T1, Full-length His-tagged MALT1 (human, UniProt Q9UDY8 1-824).
T1 sequence: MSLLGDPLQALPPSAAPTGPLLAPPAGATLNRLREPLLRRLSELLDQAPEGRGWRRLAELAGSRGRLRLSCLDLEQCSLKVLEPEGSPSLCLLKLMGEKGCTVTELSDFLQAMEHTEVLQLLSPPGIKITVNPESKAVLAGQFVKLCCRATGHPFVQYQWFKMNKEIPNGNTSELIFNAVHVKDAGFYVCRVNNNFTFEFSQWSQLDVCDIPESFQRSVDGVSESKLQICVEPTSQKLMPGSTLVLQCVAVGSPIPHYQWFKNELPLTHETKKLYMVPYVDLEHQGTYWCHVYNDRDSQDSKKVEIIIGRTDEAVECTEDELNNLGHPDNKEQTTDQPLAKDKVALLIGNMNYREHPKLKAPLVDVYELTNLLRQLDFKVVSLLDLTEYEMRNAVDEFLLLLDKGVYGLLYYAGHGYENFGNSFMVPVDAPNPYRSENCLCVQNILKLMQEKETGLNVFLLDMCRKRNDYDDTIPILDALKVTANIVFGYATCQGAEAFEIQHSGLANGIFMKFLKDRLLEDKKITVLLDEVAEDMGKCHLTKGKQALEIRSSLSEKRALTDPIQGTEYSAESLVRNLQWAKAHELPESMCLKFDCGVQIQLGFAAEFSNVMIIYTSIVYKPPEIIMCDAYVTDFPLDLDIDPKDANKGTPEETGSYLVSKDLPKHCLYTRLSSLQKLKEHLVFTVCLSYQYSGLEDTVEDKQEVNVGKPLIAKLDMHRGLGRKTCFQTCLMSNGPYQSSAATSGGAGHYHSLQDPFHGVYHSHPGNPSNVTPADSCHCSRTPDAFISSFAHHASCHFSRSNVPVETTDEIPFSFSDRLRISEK
In words: negative-stain EM.

The target in data set [2] is T1, Full-length His-tagged MALT1. In words: fluorescence quenching polymerisation assay.
The data set “SEC” concerns the molecule itself. Kind of data set: SEC.

B1: BCL10 wild type, full length, after removal of the MBP tag by 3C protease (natural protein)
chain: MEPTAPSLTEEDLTEVKKDALENLRVYLCEKIIAERHFDHLRAKKILSREDTEEISCRTSSRKRAGKLLDYLQENPKGLDTLVESIRREKTQNFLIQKITDEVLKLRNIKLEHLKGLKCSSCEPFPDGATNNLSRSNSDESNFSEKLRASTVMYHPEGESSTTPFFSTNSSLNLPVLEVGRTENTIFSSTTLPRPGDPGAPPLPPDLQLEEEGTCANSSEMFLPLRSRTVSRQ
modifications: Alexa488 (C5-maleimide) on cysteine residues in the confocal and quenching assays; not labelled for EM
Consider B1, for which the binding result in data set [1] is recorded as “binds”.

B2: BCL10 R58Q, full length, after removal of the MBP tag by 3C protease (natural protein)
chain: MEPTAPSLTEEDLTEVKKDALENLRVYLCEKIIAERHFDHLRAKKILSREDTEEISCQTSSRKRAGKLLDYLQENPKGLDTLVESIRREKTQNFLIQKITDEVLKLRNIKLEHLKGLKCSSCEPFPDGATNNLSRSNSDESNFSEKLRASTVMYHPEGESSTTPFFSTNSSLNLPVLEVGRTENTIFSSTTLPRPGDPGAPPLPPDLQLEEEGTCANSSEMFLPLRSRTVSRQ
modifications: Alexa488 (C5-maleimide) on cysteine residues in the confocal and quenching assays; not labelled for EM
Regarding B2, in data set [2], the binding result is on record as “binds”.

B3: BCL10 E140X truncation mutant, after removal of the MBP tag by 3C protease (domain or fragment)
chain: MEPTAPSLTEEDLTEVKKDALENLRVYLCEKIIAERHFDHLRAKKILSREDTEEISCRTSSRKRAGKLLDYLQENPKGLDTLVESIRREKTQNFLIQKITDEVLKLRNIKLEHLKGLKCSSCEPFPDGATNNLSRSNSD
modifications: Alexa488 (C5-maleimide) on cysteine residues in the confocal and quenching assays; not labelled for EM
Turning to B3, the binding result in data set [1] was “binds”.

B4: MBP-fused BCL10 E140X (domain or fragment)
chain: MEPTAPSLTEEDLTEVKKDALENLRVYLCEKIIAERHFDHLRAKKILSREDTEEISCRTSSRKRAGKLLDYLQENPKGLDTLVESIRREKTQNFLIQKITDEVLKLRNIKLEHLKGLKCSSCEPFPDGATNNLSRSNSD
For the molecule B4, the binding result in the data set “SEC” is reported as “binds”.

These data come from publication PMC9357155 (Cancer Discovery, 2022).
